Test system: MS2 coat protein
Test: apparent KD of MS2 coat protein; designed switch direction (-1 OFF switch, 1 ON switch): -1; higher = weaker reporter binding
Method in brief: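 Designed RNA switches sharing common flanks were transcribed on Illumina chips by stalled E. coli RNA polymerase. They were titrated with SNAP-549-labelled MS2 coat protein, from 0.7 or 1.5 nM doubling to 3 µM, in Tris-HCl pH 7.5 buffer with KCl, MgCl2, BSA, DTT, tRNA and Tween-20. Titrations ran without input, with 200 uM small-molecule ligand, or with an oligonucleotide input. The apparent KD of each design is the median over its clusters, after curve-fitting of normalised cluster fluorescence.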

[1] = Eterna round: R95, input ligand: FMN 200 uM
[2] = Eterna round: R95, input ligand: microRNA oligo, concentration not stated
[3] = Eterna round: R95, input ligand: none
[4] = input ligand: microRNA oligo, concentration not stated

| Sequence | apparent KD of MS2 coat protein [1] [nM] | apparent KD of MS2 coat protein [2] [nM] | apparent KD of MS2 coat protein [3] [nM] | apparent KD of MS2 coat protein (input ligand: FMN 200 uM) [nM] | apparent KD of MS2 coat protein [4] [nM] | apparent KD of MS2 coat protein (input ligand: none) [nM] |
| --- | --- | --- | --- | --- | --- | --- |
| AGUACUAACACGAGAGUGUUAGUACAAUAAGCUUGUGUUACAUGAGGAUCACCCAUGUCCUCAUAAGCUCGUCUUAA [Mat - Sensor v3 - Turn-off var 2 - D58] (puzzle: Sensor v3, turn-off variant 2) | 41.3 | 727 | 42.5 | – | – | – |
| AGUACUAACACGGAAGUGUUAGUACAAUAAGCUUGUGUUACAUGAGGAUCACCCAUGUCCUCAUAAGCUCGUCUUAU [Mat - Sensor v3 - Turn-off var 2 - D61] (puzzle: Sensor v3, turn-off variant 2) | 113 | 12.4 | 112 | – | – | – |
| AGUACUAACACGGAAGUGUUAGUACUAUAAGCUUGUGUUACAUGAGGAUCACCCAUGUCCUCAUAAGCUCGUCUUAU [Mat - Sensor v3 - Turn-off var 2 - D69] (puzzle: Sensor v3, turn-off variant 2) | 94.5 | 87 | 98.2 | – | – | – |
| AGUACUAUCACGAAAGUGAUAGUACAAUGAGCUUUUGAAACAUGAGGAUCACCCAUGUCCUCGUAAGCUCGUCUUAA [Mat - Sensor v2 - var 2 - Mod - D179] (Eterna round: R96, puzzle: Sensor v2, turn-off variant 2) | – | – | – | 25.7 | 438 | 28.6 |
| AGUACUAUCACGAAAGUGAUAGUACGAGGAGCAAGUGGAACAUGAGGAUCACCCAUGUCCUCAUCUGCUCGUCUUAU [salish99-s2-v2-x008] (Eterna round: R96, puzzle: Sensor v2, turn-off variant 2) | – | – | – | 13.5 | 172 | 16.3 |
| AGUACUAUGCGAGCUGACUUGCGUAGUGCAGCAGGUGGAACAUGAGGAUCACCCAUGUCCUCAUUUGCUCGUCUUAU [Mat - Sensor v3 - Turn-off var 2 - D4] (puzzle: Sensor v3, turn-off variant 2) | 30.2 | 120 | 26.8 | – | – | – |
| AGUAGAUCAGGAUAUACGUGAAAGGUCAAAGUGUCCAAUAUACAUGAGGAUCACCCAUGUAGAAGGGAUCUACA [Ex2 Design 116: Not so Super Stable 3] (Eterna round: R96, puzzle: Exclusion 2) | – | – | – | 168 | 22.1 | 27.4 |
| AGUAGGUCUACCUUGGUGGAUCUGCAUUUAUGCAAGUGUACAUGAGGAUCACCCAUGUCCUCAUUUGCUCGUCUUAU [JL turnoff v2 99.26] (puzzle: Sensor v3, turn-off variant 2) | 95 | 432 | 103 | – | – | – |
| AGUAGUUGUUUCCGUUCUUACAUGAGGAUCACCCAUGUUUCUUGUCGUGCACGCGAUGCUCGUCAGACUACCAGAUG [salish99_TOv1_r3_058] (puzzle: Sensor v3, turn-off variant 1) | 52.5 | 69.9 | 61.9 | – | – | – |
| AGUAUGUCAGGAUAUCUCGGGUAGCCCACAAGGACUACCGAAGAGAAGGGACAUGAGGAUCACCCAUGUACCAU [EX4 B.24] (Eterna round: R97, puzzle: Exclusion 4) | – | – | – | 19.9 | – | 21.4 |
| AGUCAGGCGGUAGGAUAUCCAAAUCGAGUGACCCUCUCAUAACAUGAGGAUCACCCAUGUCGGUGGGAGAAGGGCCGUAAGGCA [Mat - Exclusion NG 2 - Mod of JL - D64] (Eterna round: R96, puzzle: Exclusion NG 2) | – | – | – | 33 | 16.4 | 30.9 |
| AGUCGGCGAGGAUAUACAUGAGGAUCACCCAUGUGAUAUAGUGCACGCGUACGUGUACGUAGAAGGCGCUGACA [Mat - Exclusion 3 - Mod of JL D93] (puzzle: Exclusion 3) | – | 11.5 | – | – | – | – |
| AGUGCAUGAGGAUAUGCAAAUCGAAAGACGCAAGGGCAAUCACAUGAGGAUCACCCAUGUAGAAGGCGUCGCAC [Eternabot (Original) Solution 17] (Eterna round: R97, puzzle: Exclusion 2) | – | – | – | 30.7 | – | 31.9 |
| AGUGCGUAUGUGAGGAUAUGCUGGUCCUUGGAUCAGCAGAAGGCACAUGAGGAUCACCCAUGUGGUGUCGUACU [salish99_Bmod_Ex4_005] (puzzle: Brourd's mod of Exclusion 4) | – | 190 | – | – | – | – |
| AGUGCGUAUGUGAGGAUAUGCUGGUCCUUGGAUCGGCAGAAGGCACAUGAGGAUCACCCAUGUGGUGUCGUACG [salish99_Bmod_ex4_077] (puzzle: Brourd's mod of Exclusion 4) | 203 | 58.6 | 89.2 | – | – | – |
| AGUGUGUGGCAGGAUAUUCUAAUCUUGAGGAGGGAAGAAGGGUCUACAUGAGGAUCACCCAUGUAAGCGGUUGA [Ex6 #41] (Eterna round: R97, puzzle: Exclusion 6) | – | – | – | 142 | – | 33.6 |

| Sequence | apparent KD of MS2 coat protein [1] [nM] | apparent KD of MS2 coat protein [2] [nM] | apparent KD of MS2 coat protein [3] [nM] | apparent KD of MS2 coat protein (input ligand: FMN 200 uM) [nM] | apparent KD of MS2 coat protein [4] [nM] | apparent KD of MS2 coat protein (input ligand: none) [nM] |
| --- | --- | --- | --- | --- | --- | --- |
| AGUGUGUGGCAGGAUAUUCUGUUGAUUAGGACAGAAGAAGGGUCUACAUGAGGAUCACCCAUGUAAGCGGUUGA [Ex6 #36] (Eterna round: R97, puzzle: Exclusion 6) | – | – | – | 275 | – | 268 |
| AGUUCUAACACGAAAGUGUUAGUACAAUAAGCUUGUGAAACAUGAGGAUCACCCAUGUCCUCAUAAGCUCGUCUUAU [salish99_TOv2_r3_013] (puzzle: Sensor v3, turn-off variant 2) | 15.4 | 667 | 14.7 | – | – | – |
| AGUUGGCGAGGAUAUACAUGAGGAUCACCCAUGUAUGAGAUACGAGUAAGGUAAAUAUGUAGAAGGCGCUGACA [JR_Ex3_Sub077] (Eterna round: R97, puzzle: Exclusion 3) | – | – | – | 52 | – | 16.8 |
| AGUUGGCGAGGAUAUACAUGAGGAUCACCCAUGUGAAAUAGAAGAGUGAGGAAGAAAAGUAGAAGGCGCUGACA [Mat - Exclusion 3 - Mod of Salish D40] (puzzle: Exclusion 3) | 134 | 69 | 107 | – | – | – |
| AGUUGGCGAGGAUAUACAUGAGGAUCACCCAUGUGAAAUCGAGAAAAAAUAGGGAAAAGUAGAAGGCGCAGACA [Ruby 63] (Eterna round: R96, puzzle: Exclusion 3) | – | – | – | 28.2 | 24.3 | 28.7 |
| AGUUGGCGAGGAUAUACAUGAGGAUCACCCAUGUGAGGGAUACUAGUGAGGUCGAUUAGUAGAAGGCGCUGACA [Mat X3R4 m9] (Eterna round: R97, puzzle: Exclusion 3) | – | – | – | 839 | – | 56.1 |
| AGUUGGCGAGGAUAUACAUGAGGAUCACCCAUGUGGUCCUGCGAUGGUGUCGCCCUUUGUAGAAGGCGCGGGUA [salish99_ex3_r4_055] (Eterna round: R97, puzzle: Exclusion 3) | – | – | – | 40.7 | – | 38.8 |
| AGUUGGGCAGGAUAUACAUGAGGAUCACCCAUGUGAGAGAUACUAGUGAGGUCGAUUAGUAGAAGGGCCUGACA [Mat X3R4 m2] (Eterna round: R97, puzzle: Exclusion 3) | – | – | – | 251 | – | 40.9 |
| AGUUGUUGUUUCCGUUCUUACAUGAGGAUCACCCAUGUUUCUUGUCGUGCUCGCGUUGCUCGUCAGACUACCUGUUG [salish99_TOv1_r3_064] (puzzle: Sensor v3, turn-off variant 1) | 87.1 | 106 | 138 | – | – | – |
| AUAAAGCAGUCAGGAUAUAUGAGAGGUCGUUUCAUAGAAGGGACAGCUCGUGCGUGGCUGACAUGAGGAUCACCCAUGUACGUU [Enrizala] (Eterna round: R96, puzzle: Exclusion NG 1) | – | – | – | 229 | 39.1 | 37.6 |
| AUAAAUAAGGAGGAUAUCGUAUCGGAAACGAUACGAGAAGGUCUAACAUGAGGAUCACCCAUGUUCCUCAAUAA [Mat - Exclusion 6 - Eli Mod - D47] (puzzle: Exclusion 6) | – | 34.5 | – | – | – | – |
| AUAAAUCAUGUAGGAUAUGCGUGGCAAAGCUAUGCAGAAGGACAUGAGGAUCACCCAUGUGCUUCCGUCUGCGUACAGACGGUA [Mat - Exclusion NG 1 - Mod of JL - D33] (Eterna round: R96, puzzle: Exclusion NG 1) | – | – | – | 114 | 80.7 | 107 |
| AUAACAAGCUUUUUGUUCGUAGAACAUGAUGCUCGAGUCACAUGAGGAUCACCCAUGUCAACCAGAUAGAUAGUUGA [JR_SV3TOV2_Sub061] (puzzle: Sensor v3, turn-off variant 2) | 41.2 | 162 | 54.4 | – | – | – |
| AUAAGCUUUGAGAUCCUUAACAUGAGGAUCACCCAUGUUCGUCUUAUGAUGGUCUGAUCCCUGAGGAUCGGACCGUC [JL-sv1-2.01 Brourd Mod] (puzzle: Sensor v3, turn-off variant 1) | 456 | 13.5 | 416 | – | – | – |
| AUAAGUAUAUAGGAUAUCUAGCUGGUAACAGCUAGAGAAGGAUGUACAUGAGGAUCACCCAUGUAAAUCUCAAU [Ex6/12-A2] (Eterna round: R97, puzzle: Exclusion 6) | – | – | – | 15.7 | – | 16.1 |
| AUAAUACAUGAGGAUCACCCAUGUGAGGAUAUACGACUCCAACCAAACUGCUUGGACCGUAGAAGGCACAAGGG [Exclusion 1 (MOD1 Esqu)] (Eterna round: R97, puzzle: Exclusion 1) | – | – | – | 22.7 | – | 589 |
